Results from PMC7117317 (Veterinary Microbiology, 2019).

B1: Nb54 (VHH)
VHH: QVQLQESGGGSVQSGGSLRLSCAASTYTYNNYCMGWFRQAPGKEREGVASIERFGHTIFADSVKGRFTISRDNTKNTLYLQMNSLKPEDTAMYYCATERPSAYCSDSFTFNYWGQGTQVTVSS
B2: Nb114 (VHH)
VHH: QVQLQESGGGSVQSGGSLRLSCAASGYTYQTYSMGWFRQAPGKEREGVAAIDDDGSTMYADSVKGRFTISQDSAKNTLYLQMNSLKPEDTAVYYCAASGFRGLLEFMRNIWVDYWGQGTQVTVSS
B3: Nb100 (VHH)
VHH: QVQLQESGGGSVQSGGSLRLSCAASGYRRYCMAWFRQAPGKEREGVASIRSDGSTRYADSVKGRFSISQDNAENTLYLQMNSLKPEDTAMYYCAADSSAGCYSVHNSLLARSTYNYWGQGTQVTVSS
B4: Nb20 (VHH)
VHH: QVQLQESGGGSVQSGGSLRLSCRAVDGSGACMGWFRQAPGKEREGVAVIARDGSTNYAHSVRGRFTISQDNAKNTLYLQMNGLKPDDTAMYYCAAGPRFRSCSTSPSFYTSWGQGTQVTVSS
B5: Nb60 (VHH)
VHH: QVQLQESGGGSVQPGGSLRLSCAASGFAVSSVAMSWVRQAPGKGLEWVSSINRYGFRVYADSVTGRFTISRDNAKNTLYLQLNSLKTEDTAMYYCSKDDDANWLNGRRGQGTQVTVSS
B6: Nb5 (VHH)
VHH: QVQLQESGGGSVQSGGSLRLSCAASTYTYSSGCMGWFRQAPGKEREGVATIDSDGSTTYADSVKGRFTISQDNAKNTLQLQMNSLKPEDTAMYYCAADDFWICSIIGRPGVADFRYWGQGTQVTVSS
B7: Nb45 (VHH)
VHH: QVQLQESGGGSVQSGGSLRLSCARSGYARRIYSMAWFRQAPGKEREGVAILNDDGNPTYAGSVKGRFTISRDNAKNTLYLQMNSLKPEDTAMYYCAADLTAQSYTRDRLLTSAYNVWGQGTQVTVSS

Target: BVDV NS5B-His recombinant protein (Bovine viral diarrhea virus 1, strain …, UniProt P19711)
Assay: ELISA

Sequence of BVDV NS5B-His recombinant protein (P19711 whole entry, looked up): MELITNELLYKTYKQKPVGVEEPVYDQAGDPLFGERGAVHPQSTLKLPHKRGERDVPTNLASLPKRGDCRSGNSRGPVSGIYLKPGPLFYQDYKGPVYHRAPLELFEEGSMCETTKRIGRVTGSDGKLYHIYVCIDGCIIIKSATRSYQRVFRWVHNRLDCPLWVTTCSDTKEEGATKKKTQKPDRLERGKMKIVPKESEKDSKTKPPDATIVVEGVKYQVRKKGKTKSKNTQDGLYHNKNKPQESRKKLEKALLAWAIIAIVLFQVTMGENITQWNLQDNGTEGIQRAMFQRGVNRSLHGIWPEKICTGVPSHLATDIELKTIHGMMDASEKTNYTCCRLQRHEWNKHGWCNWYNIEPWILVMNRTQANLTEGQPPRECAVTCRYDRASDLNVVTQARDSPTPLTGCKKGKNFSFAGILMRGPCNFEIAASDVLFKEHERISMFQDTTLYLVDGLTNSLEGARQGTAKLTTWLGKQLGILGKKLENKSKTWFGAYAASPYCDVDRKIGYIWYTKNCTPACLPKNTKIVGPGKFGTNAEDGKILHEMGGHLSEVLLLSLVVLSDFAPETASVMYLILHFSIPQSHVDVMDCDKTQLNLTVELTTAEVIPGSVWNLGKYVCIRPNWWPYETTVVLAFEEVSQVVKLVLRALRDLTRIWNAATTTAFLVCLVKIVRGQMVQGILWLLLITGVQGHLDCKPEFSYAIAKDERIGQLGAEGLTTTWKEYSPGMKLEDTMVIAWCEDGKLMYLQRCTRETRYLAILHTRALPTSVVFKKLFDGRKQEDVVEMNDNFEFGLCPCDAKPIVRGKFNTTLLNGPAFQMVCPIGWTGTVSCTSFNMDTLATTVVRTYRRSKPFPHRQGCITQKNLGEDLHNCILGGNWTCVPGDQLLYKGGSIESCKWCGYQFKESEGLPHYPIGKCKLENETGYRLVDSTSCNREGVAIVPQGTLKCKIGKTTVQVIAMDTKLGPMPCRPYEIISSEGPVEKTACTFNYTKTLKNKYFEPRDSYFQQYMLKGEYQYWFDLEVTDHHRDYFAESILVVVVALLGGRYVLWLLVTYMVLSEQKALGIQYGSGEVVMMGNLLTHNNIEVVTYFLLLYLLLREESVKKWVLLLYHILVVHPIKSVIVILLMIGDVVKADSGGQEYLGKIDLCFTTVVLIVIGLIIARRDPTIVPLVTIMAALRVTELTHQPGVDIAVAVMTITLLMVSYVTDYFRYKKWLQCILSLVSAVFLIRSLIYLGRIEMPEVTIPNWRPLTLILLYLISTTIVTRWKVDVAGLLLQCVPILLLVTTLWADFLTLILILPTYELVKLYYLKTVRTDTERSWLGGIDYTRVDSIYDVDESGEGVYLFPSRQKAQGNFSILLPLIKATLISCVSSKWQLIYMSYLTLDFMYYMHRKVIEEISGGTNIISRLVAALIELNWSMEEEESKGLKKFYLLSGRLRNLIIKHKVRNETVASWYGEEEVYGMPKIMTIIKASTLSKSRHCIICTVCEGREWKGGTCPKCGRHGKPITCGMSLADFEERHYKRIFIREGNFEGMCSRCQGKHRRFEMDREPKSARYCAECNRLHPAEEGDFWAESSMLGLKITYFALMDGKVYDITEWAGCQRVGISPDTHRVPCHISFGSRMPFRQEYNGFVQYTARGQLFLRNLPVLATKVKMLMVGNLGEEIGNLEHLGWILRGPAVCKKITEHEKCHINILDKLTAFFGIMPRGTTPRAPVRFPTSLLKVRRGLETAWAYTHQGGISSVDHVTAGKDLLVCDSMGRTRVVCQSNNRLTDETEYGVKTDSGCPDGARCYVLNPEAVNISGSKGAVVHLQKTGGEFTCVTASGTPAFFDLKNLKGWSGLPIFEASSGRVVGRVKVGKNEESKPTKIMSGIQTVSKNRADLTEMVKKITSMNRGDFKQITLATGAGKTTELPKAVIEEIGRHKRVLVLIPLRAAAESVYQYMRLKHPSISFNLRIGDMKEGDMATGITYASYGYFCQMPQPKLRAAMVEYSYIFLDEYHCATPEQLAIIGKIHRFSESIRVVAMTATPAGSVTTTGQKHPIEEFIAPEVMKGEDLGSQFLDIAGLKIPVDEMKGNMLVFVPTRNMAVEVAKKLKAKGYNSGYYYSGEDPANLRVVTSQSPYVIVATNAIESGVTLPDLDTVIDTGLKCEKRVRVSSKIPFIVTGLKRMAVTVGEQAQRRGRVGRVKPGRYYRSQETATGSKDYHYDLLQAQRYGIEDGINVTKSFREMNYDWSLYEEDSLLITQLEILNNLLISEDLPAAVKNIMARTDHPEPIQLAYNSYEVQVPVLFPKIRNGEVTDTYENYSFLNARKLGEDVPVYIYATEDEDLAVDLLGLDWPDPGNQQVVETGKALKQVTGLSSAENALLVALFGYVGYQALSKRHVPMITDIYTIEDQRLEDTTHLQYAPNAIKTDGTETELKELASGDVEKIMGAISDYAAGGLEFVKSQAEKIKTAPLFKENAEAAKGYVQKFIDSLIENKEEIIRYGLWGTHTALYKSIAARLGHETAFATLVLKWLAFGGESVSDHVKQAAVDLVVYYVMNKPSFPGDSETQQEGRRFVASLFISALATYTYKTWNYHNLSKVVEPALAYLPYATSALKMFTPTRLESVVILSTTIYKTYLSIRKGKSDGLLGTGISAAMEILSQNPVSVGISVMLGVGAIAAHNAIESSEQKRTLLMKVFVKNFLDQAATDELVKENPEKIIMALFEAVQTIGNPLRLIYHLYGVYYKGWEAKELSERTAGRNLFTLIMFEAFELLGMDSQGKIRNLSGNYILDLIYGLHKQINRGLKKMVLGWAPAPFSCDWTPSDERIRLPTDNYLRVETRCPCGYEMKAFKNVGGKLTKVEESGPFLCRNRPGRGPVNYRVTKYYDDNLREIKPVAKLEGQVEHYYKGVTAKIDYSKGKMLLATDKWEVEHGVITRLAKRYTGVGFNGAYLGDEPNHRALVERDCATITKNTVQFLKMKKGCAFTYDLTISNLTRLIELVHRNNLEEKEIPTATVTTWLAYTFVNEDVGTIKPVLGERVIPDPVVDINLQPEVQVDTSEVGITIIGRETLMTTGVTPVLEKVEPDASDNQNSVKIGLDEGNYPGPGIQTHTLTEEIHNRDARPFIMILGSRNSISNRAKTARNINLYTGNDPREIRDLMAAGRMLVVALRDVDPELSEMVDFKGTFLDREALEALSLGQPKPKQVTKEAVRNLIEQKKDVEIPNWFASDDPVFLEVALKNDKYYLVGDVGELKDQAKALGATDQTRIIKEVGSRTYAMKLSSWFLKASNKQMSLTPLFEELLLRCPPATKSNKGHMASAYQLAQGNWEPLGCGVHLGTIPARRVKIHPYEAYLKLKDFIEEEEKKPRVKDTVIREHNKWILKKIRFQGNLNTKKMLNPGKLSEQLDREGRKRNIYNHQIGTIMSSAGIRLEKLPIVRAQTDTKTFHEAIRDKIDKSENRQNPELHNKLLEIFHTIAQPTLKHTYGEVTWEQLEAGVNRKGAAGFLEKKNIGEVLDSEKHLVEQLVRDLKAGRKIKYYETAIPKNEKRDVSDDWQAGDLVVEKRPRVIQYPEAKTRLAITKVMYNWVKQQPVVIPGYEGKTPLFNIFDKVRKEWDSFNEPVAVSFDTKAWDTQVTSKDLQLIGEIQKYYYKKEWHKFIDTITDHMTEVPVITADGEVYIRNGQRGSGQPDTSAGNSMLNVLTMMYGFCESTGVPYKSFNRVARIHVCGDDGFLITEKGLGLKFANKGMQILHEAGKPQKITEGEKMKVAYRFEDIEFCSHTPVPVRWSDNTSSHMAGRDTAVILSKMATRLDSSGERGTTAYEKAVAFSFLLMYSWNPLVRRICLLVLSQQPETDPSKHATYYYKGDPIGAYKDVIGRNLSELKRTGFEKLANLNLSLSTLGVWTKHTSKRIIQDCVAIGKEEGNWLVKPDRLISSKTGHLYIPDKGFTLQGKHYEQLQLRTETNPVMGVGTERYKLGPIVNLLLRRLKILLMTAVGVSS

Binder | binding result
B1 | binds
B2 | binds
B3 | binds
B4 | binds
B5 | binds
B6 | binds
B7 | binds
